# Test results taken from the RNAGym collection of RNA variant scans (doi:10.7554/elife.90254).
# B1: OR4K15 (parent)
# chain: GUUAACGGUCAUAGGCCAUGGAAACUAGGAGCACCAUUUCGCUGCCAGUGAAGAAAUGAACAAAGAAAAUCUGGGCCAGGCAGGCAUCAAAAGAAAUAGUCUUGCGCUCAACCAGAAAGUCUGUAAUCAUUUUAAGGGUA
# Variants of: B1
# Assay: self-cleavage, relative activity (ratio to wild type); higher = more cleavage; in vitro, sequencing; the parent is a self-cleaving ribozyme
row,Variant,self-cleavage
1,GUUAACGGUCAUAGGCCAUGGAAACUAGGAGCACCAUUUCACUGCCAGUGAAGAAAUGAACAAAGAAAAUCUGGGCCAGGCAGGCAUCAAAGGAAAUAGUCUUGCGCUCAACCAGAAAGUCUGUAAUCAUUUUAAGGGUA [G41A A92G],0.97
2,GUUAACGGUCAUAGGCCAUGGAAACUAGGAGCACCAUUUCACUGCCAGUGAAGAAAUGAACAAAGGAAAUCUGGGCCAGGCAGGCAUCAAAAGAAAUAGUCUUGCGCUCAACCAGAAAGUCUGUAAUCAUUUUAAGGGUA [G41A A66G],1.74
3,GUUAACGGUCAUAGGCCAUGGAAACUAGGAGCACCAUUUCACUGCCAGUGAAGGAAUGAACAAAGAAAAUCUGGGCCAGGCAGGCAUCAAAAGAAAUAGUCUUGCGCUCAACCAGAAAGUCUGUAAUCAUUUUAAGGGUA [G41A A54G],1.09
4,GUUAACGGUCAUAGGCCAUGGAAACUAGGAGCACCAUUUCACUGCCAGUGAAGAAAUGAACAAAGAAAAUCUGGGCCAGGCAGGCAUCAAAAGAAAUAGUCUUGCGCUCAACCAGAAAGUCUGCAAUCAUUUUAAGGGUA [G41A U124C],1.02
5,GUUAACGGUCAUAGGCCAUGGAAACUAGGAGCACCAUUUCACUGCCAGUGAAGAAAUGAACAAAGAAAAUCUGGGCCAGGCAGGCAUCAAAAGAAAUAGUCUUGCGCUCAACCAGAAAGUCCGUAAUCAUUUUAAGGGUA [G41A U122C],1.67
6,GUUAACGGUCAUAGGCCAUGGAAACUAGGAGCACCAUUUCACUGCCAGUGAAGAAAUGAACAAAGAAAAUCUGGGCCAGGCAGGCAUCAAAAGAAAUAGUCUUGCGCUCAACCAGAAAGUCUGUAAUCAUUUUAGGGGUA [G41A A135G],0.99
7,GUUAACGGUCAUAGGCCAUGGAAACUAGGAGCACCAUUUUGCUGCCAGUGAAGAAAUGAACAAAGAAAAUCUGGGCCAGGCAGGCAUCAAAAGAAAUAGUCUUGCGCUCAACCGGAAAGUCUGUAAUCAUUUUAAGGGUA [C40U A114G],0.5
8,GUUAACGGUCAUAGGCCAUGGAAACUAGGAGCACCAUUUUGCUGCCAGUGAAGAAAUGAACAAAGAAAAUCUGGGCCAGGCAGGCAUCAAAAGAAAUAGUCUUGCGCUCAACCAGAAAGUCAGUAAUCAUUUUAAGGGUA [C40U U122A],1.3
9,GUUAACGGUCAUAGGCCAUGGAAACUAGGAGCACCAUUUCACUGCCAGUGAAGAAAUGAACAAAGAAAAUCUGGGCCAGGCAGGCAUCAAAAGAAAUAGUCUUGCGCUCAGCCAGAAAGUCUGUAAUCAUUUUAAGGGUA [G41A A111G],0.02
10,GUUAACGGUCAUAGGCCAUGGAAACUAGGAGCACCAUUUUGCUGCCAGUGAAGAAAUGAACAAAGAAAAUCUGGGCCAGGCAGGCAUCAAAAGAAAUAGUCUUGCGCUCAACCAGAAAGUCUGUAUUCAUUUUAAGGGUA [C40U A126U],1.31
11,GUUAACGGUCAUAGGCCAUGGAAACUAGGAGCACCAUUUUGCUGCCAGUGAAGAAAUGAACAAAGAAAAUCUGGGCCAGGCAGGCAUCAAAAGAAAUAGUCUUGCGCUCAACCAGAAAGUCUGUAAUCACUUUAAGGGUA [C40U U130C],0.46
12,GUUAACGGUCAUAGGCCAUGGAAACUAGGAGCACCAUUUUGCUGCCAGUGAAGAAAUGAACAAAGAAAAUCUGGGCCAGGCAGGCAUCAAAAGAAAUAGUCUUGCGCUCAACCAGAAAGUCUGUAAUCAUUAUAAGGGUA [C40U U132A],1.27
13,GUUAACGGUCAUAGGCCAUGGAAACUAGGAGCACCAUUUCACUGCCAGUGAAGAAAUGAACAAAGAAAAUCUGGGCCAGGCAGGCAUCAAGAGAAAUAGUCUUGCGCUCAACCAGAAAGUCUGUAAUCAUUUUAAGGGUA [G41A A91G],1.55
14,GUUAACGGUCAUAGGCCAUGGAAACUAGGAGCACCAUUUCACUGCCAGUGAAGAAAUGAACAAAGAAAAUCUGGGCCAGGCAGGCAUCAAAAGAAAUAGUCUUGCGCUCAACCAGAAAGUCUGUAAACAUUUUAAGGGUA [G41A U127A],2.15
15,GUUAACGGUCAUAGGCCAUGGAAACUAGGAGCACCAUUUUGCUGCCAGUGAAGAAAUGAACAAAGAAAAUCUGGGCCAGGCAGGCAUCAAAAGAAAAAGUCUUGCGCUCAACCAGAAAGUCUGUAAUCAUUUUAAGGGUA [C40U U97A],1.63
16,GUUAACGGUCAUAGGCCAUGGAAACUAGGAGCACCAUUUUGCUGCCAGUGAAGAAAUGAACAAAGAAAAUCUGGGCCAGGCAGGCAUCAAAAGAAACAGUCUUGCGCUCAACCAGAAAGUCUGUAAUCAUUUUAAGGGUA [C40U U97C],0.94
17,GUUAACGGUCAUAGGCCAUGGAAACUAGGAGCACCAUUUCACUGCCAGUGAAGAAAUGAACGAAGAAAAUCUGGGCCAGGCAGGCAUCAAAAGAAAUAGUCUUGCGCUCAACCAGAAAGUCUGUAAUCAUUUUAAGGGUA [G41A A62G],2.53
18,GUUAACGGUCAUAGGCCAUGGAAACUAGGAGCACCAUUUUGCUGCCAGUGAAGAAAUGAACAAAGAAAAUCUGGGCCAGGCAGGCAUCAAAAGAAAUAGUCUUGCGCUCAACCAGAAAGCCUGUAAUCAUUUUAAGGGUA [C40U U120C],1.32
19,GUUAACGGUCAUAGGCCAUGGAAACUAGGAGCACCAUUUCACUGCCAGUGAAGAAAUGAACAAAGAAAACCUGGGCCAGGCAGGCAUCAAAAGAAAUAGUCUUGCGCUCAACCAGAAAGUCUGUAAUCAUUUUAAGGGUA [G41A U70C],1.12
20,GUUAACGGUCAUAGGCCAUGGAAACUAGGAGCACCAUUUCACUGCCAGUGAAGAAAUGAGCAAAGAAAAUCUGGGCCAGGCAGGCAUCAAAAGAAAUAGUCUUGCGCUCAACCAGAAAGUCUGUAAUCAUUUUAAGGGUA [G41A A60G],1.63
21,GUUAACGGUCAUAGGCCAUGGAAACUAGGAGCACCAUUUCACUGCCAGUGAAGAAAUGAACAAAGAAAAUCUGGGCCAGGCAGGCAUCAAAAGAAAUAGUCUUGCGCUCGACCAGAAAGUCUGUAAUCAUUUUAAGGGUA [G41A A110G],0.12

row,Variant,self-cleavage
1,GUUAACGGUCAUAGGCCAUGGAAACUAGGAGCACCAUUUCACUGCCAGUGAGGAAAUGAACAAAGAAAAUCUGGGCCAGGCAGGCAUCAAAAGAAAUAGUCUUGCGCUCAACCAGAAAGUCUGUAAUCAUUUUAAGGGUA [G41A A52G],1.07
2,GUUAACGGUCAUAGGCCAUGGAAACUAGGAGCACCAUUUCACUGCCAGUGCAGAAAUGAACAAAGAAAAUCUGGGCCAGGCAGGCAUCAAAAGAAAUAGUCUUGCGCUCAACCAGAAAGUCUGUAAUCAUUUUAAGGGUA [G41A A51C],1.57
3,GUUAACGGUCAUAGGCCAUGGAAACUAGGAGCACCAUUUUGCUGCCAGUGAAGAAAUGAACAAAGAAAAUCUGGGCCAGGCAGGCAUCAAAAGAAAUAGUCUCGCGCUCAACCAGAAAGUCUGUAAUCAUUUUAAGGGUA [C40U U103C],0.96
4,GUUAACGGUCAUAGGCCAUGGAAACUAGGAGCACCAUUUCACUGCCAGUGAAGAAAUGAACAAAGAAAAUCUGGGCCAGGCAGGCAUCAAAAGAAAUAGUCUUGCGCUCAACCGGAAAGUCUGUAAUCAUUUUAAGGGUA [G41A A114G],0.75
5,GUUAACGGUCAUAGGCCAUGGAAACUAGGAGCACCAUUUUGCUGCCAGUGAAGAAAUGAACAAAGAAGAUCUGGGCCAGGCAGGCAUCAAAAGAAAUAGUCUUGCGCUCAACCAGAAAGUCUGUAAUCAUUUUAAGGGUA [C40U A68G],1.84
6,GUUAACGGUCAUAGGCCAUGGAAACUAGGAGCACCAUUUUGCUGCCAGUGAAGAAAUGAACAAAGAAAAUCUGGGCCAGGCAGGCAUCAAAAGAGAUAGUCUUGCGCUCAACCAGAAAGUCUGUAAUCAUUUUAAGGGUA [C40U A95G],1.96
7,GUUAACGGUCAUAGGCCAUGGAAACUAGGAGCACCAUUUCACUGCCAGUGAAGAAAUGAACAAAGAAAAUCUGGGCCAGGCAGGCAUCAAAAGAAAUAGUCUUGCGCUCAACCAGAAAGUCUGUAAUCAUUUUAAGGGUG [G41A A140G],1.89
8,GUUAACGGUCAUAGGCCAUGGAAACUAGGAGCACCAUUUCACUGCCAGUGAAGAAGUGAACAAAGAAAAUCUGGGCCAGGCAGGCAUCAAAAGAAAUAGUCUUGCGCUCAACCAGAAAGUCUGUAAUCAUUUUAAGGGUA [G41A A56G],2.07
9,GUUAACGGUCAUAGGCCAUGGAAACUAGGAGCACCAUUUUGCUGCCAGUGAAGAAAUGAACAAAGAAAAUCUGGGCCAGGCAGGCAUCAAAAGAAAUAGUCUUGCGCUCAACCAGAAAGUCUGUAAUCAUCUUAAGGGUA [C40U U131C],1.93
10,GUUAACGGUCAUAGGCCAUGGAAACUAGGAGCACCAUUUUGCUGCCAGUGAAGAAACGAACAAAGAAAAUCUGGGCCAGGCAGGCAUCAAAAGAAAUAGUCUUGCGCUCAACCAGAAAGUCUGUAAUCAUUUUAAGGGUA [C40U U57C],1.07
11,GUUAACGGUCAUAGGCCAUGGAAACUAGGAGCACCAUUUUGCUGCCAGUGAAGAAAUGAACAAAGAAAAUCAGGGCCAGGCAGGCAUCAAAAGAAAUAGUCUUGCGCUCAACCAGAAAGUCUGUAAUCAUUUUAAGGGUA [C40U U72A],0.34
12,GUUAACGGUCAUAGGCCAUGGAAACUAGGAGCACCAUUUCACUGCCAGUGAAGAAAUGAACAAAGAAAAUCUGGGCCAGGCAGGCAACAAAAGAAAUAGUCUUGCGCUCAACCAGAAAGUCUGUAAUCAUUUUAAGGGUA [G41A U87A],1.71
13,GUUAACGGUCAUAGGCCAUGGAAACUAGGAGCACCAUUUUGCUGCCAGUGAAGAAAUGAACAAAGAAAAUCUGGGCCAGGCAGGCAUCAAAAGAAAUAGUCUUGCGCUCAACCAGGAAGUCUGUAAUCAUUUUAAGGGUA [C40U A116G],1.57
14,GUUAACGGUCAUAGGCCAUGGAAACUAGGAGCACCAUUUUGCUGCCAGUGAAGAAAUGAACAAAGAGAAUCUGGGCCAGGCAGGCAUCAAAAGAAAUAGUCUUGCGCUCAACCAGAAAGUCUGUAAUCAUUUUAAGGGUA [C40U A67G],0.82
15,GUUAACGGUCAUAGGCCAUGGAAACUAGGAGCACCAUUUCACUGCCAGUGAAGAAAUGAACAAAGAAAAUCUGGGCCAGGCAGGCAUCAAAAGGAAUAGUCUUGCGCUCAACCAGAAAGUCUGUAAUCAUUUUAAGGGUA [G41A A94G],1.9
16,GUUAACGGUCAUAGGCCAUGGAAACUAGGAGCACCAUUUCACUGCCAGUGAAGAAAUGAACAAAGAAAAUCUGGGCCAGGCAGGCAUCAAAAGAAAUAGUCUUGCGCUCAACCAGAAAGUCUGUAAUCAUUUUAAGGGUA [G41A],1.67
17,GUUAACGGUCAUAGGCCAUGGAAACUAGGAGCACCAUUUCACUGCCAGUGAAGAAAUGAACAAAGAAAAUCUGGGCCAGGCAGGCAUCAAAAGAAAUAGUCUUGCGCUCAACCAGAAAGUCUGUCAUCAUUUUAAGGGUA [G41A A125C],0.19
18,GUUAACGGUCAUAGGCCAUGGAAACUAGGAGCACCAUUUCACUGCCAGUGAAGAAAUGAACAAAGAAAAUCUGGGCCAGGCAGGCAUCAAAAGAAAUAGUCUUGCGCUCAACCAGAAAGUCUGUGAUCAUUUUAAGGGUA [G41A A125G],0.77
19,GUUAACGGUCAUAGGCCAUGGAAACUAGGAGCACCAUUUUGCUGCCAGUGAAGAAAUGAACAAAGAAAAUCUGGGCCAGGCAGGCAUCAAAAGAAAUAGUCUUGCGCACAACCAGAAAGUCUGUAAUCAUUUUAAGGGUA [C40U U108A],0.01
20,GUUAACGGUCAUAGGCCAUGGAAACUAGGAGCACCAUUUCACUGCCAGUGAAGAAAUGAACAAAGAAAAUCUGGGCCAGGCAGGCAUCAAAAGAAAUAGUCUUGCGCUCAACCAGAAAGUCUGUAGUCAUUUUAAGGGUA [G41A A126G],1.48
